The supplement of paper PMC10567573

Test: protein stability index of a GFP-peptide fusion (GPS, HEK-293T) (PSI 1-6); higher = more stable
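Also: lentivirally expressed fusions sorted by FACS into six bins by GFP to DsRed ratio, PSI derived from sequencing read proportions per bin multiplied by bin number.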

## QLQSMPSRELASMNLDIVDLLKKA
parent: IOH25836_87, c terminus: a fixed tail appended
  protein stability index: 3.28

## YGSIHGPTDYQVNIQIIEYEKKQT
parent: IOH21551_62, c terminus: a fixed tail appended
  protein stability index: 2.54

## IVGFGLYGSIHGPTDYQVNIQIIE
parent: IOH21551_61, c terminus: a fixed tail appended
  protein stability index: 3.17

## PSRVHASEVESAVWYVKKFGRYLE
parent: IOH22759_12, c terminus: a fixed tail appended
  protein stability index: 2.26

## YHEAPMTRKHYQVTGYGINGTGDS
parent: IOH22744_72, c terminus: a fixed tail appended
  protein stability index: 2.29

## LTLKVLRSSSCGDTELLGQATLPV
parent: IOH21460_59, c terminus: a fixed tail appended
  protein stability index: 2.3

## VRSRLEEAGIKVHDVRLNGSAAGH
parent: IOH22484_10, c terminus: a fixed tail appended
  protein stability index: 2.22

## LYTGELDENERDLMHIAHIAELLE
parent: IOH23244_73, c terminus: a fixed tail appended
  protein stability index: 2.54

## DEIEFLKKLHEEELRDLQVSVESQ
parent: IOH21924_38, c terminus: a fixed tail appended
  protein stability index: 4.78

## AKAADSPTRNDLESGLGHFSLRVH
parent: IOH21711_5, c terminus: a fixed tail appended
  protein stability index: 3.12

## WTMQAYERNFWDPSPQLDTQQEIK
parent: IOH25728_43, c terminus: a fixed tail appended
  protein stability index: 2.62

## DWRKNIEEKSGMEGRKKMFESES [TNNI2 WT]
parent: IOH23107_29, c terminus: native
  protein stability index: 2.45

## GEGTGSPPKWQIGEQEFEALMRML [ADD1 WT]
parent: IOH25868_61, c terminus: a fixed tail appended
  protein stability index: 3.11

## LLTITKAHSNAISNCCFTFSGHFL [WDR88 WT]
parent: IOH21600_45, c terminus: a fixed tail appended
  protein stability index: 3.1

## SDVVDWLYHNVEGFTDRREARKYA
parent: IOH21682_75, c terminus: a fixed tail appended
  protein stability index: 2.98

## FVLGKGRGAAAAGGPQRIPAHRFV
parent: IOH21551_13, c terminus: a fixed tail appended
  protein stability index: 1.88

## RNTKRDVTLEASRENSKPRAILKP
parent: IOH22211_62, c terminus: a fixed tail appended
  protein stability index: 4.59

## VHTGCHKKLGPEARRPRTRWGKN
parent: IOH21711_9, c terminus: native
  protein stability index: 1.97

## VTEDLRLKDWEHSIALRNISLAKG [SCARA5 WT]
parent: IOH23227_48, c terminus: a fixed tail appended
  protein stability index: 3.31

## PSNRSFFSEIISSISDVKFSHSGR
parent: IOH22211_46, c terminus: a fixed tail appended
  protein stability index: 2.33

## FPELGYSYGGGSASSQHSEGSRSS
parent: IOH21682_93, c terminus: a fixed tail appended
  protein stability index: 3.14

## RTFGPPPSLSPGAFSYSSSSRFSS
parent: IOH21924_4, c terminus: a fixed tail appended
  protein stability index: 3.3

## SFMPLVIKVTSATSVNLGILTADL
parent: IOH25755_47, c terminus: a fixed tail appended
  protein stability index: 2.79

## VSHVFMLLFNVKSPTDIQDSSIIR
parent: IOH25836_47, c terminus: a fixed tail appended
  protein stability index: 2.27

## VLRSRIRFIHLVTGCVLGSSGKVL
parent: IOH22744_79, c terminus: a fixed tail appended
  protein stability index: 2.76

## GVLILFLTFFAFLHCWLNAFAEML
parent: IOH22371_63, c terminus: a fixed tail appended
  protein stability index: 2.73

## LRGGGQVLLGWTLHYFPFFLMGRV
parent: IOH22744_107, c terminus: a fixed tail appended
  protein stability index: 2.33

## VYYIFERLCAPLFRNIKQEPFSAR
parent: IOH22371_57, c terminus: a fixed tail appended
  protein stability index: 2.19

## KVVEAHKIVLCAVSHVFMLLFNVK
parent: IOH25836_45, c terminus: a fixed tail appended
  protein stability index: 2.49

## RVFKARIYTNRYETNEEDKTLQEI
parent: IOH22759_67, c terminus: a fixed tail appended
  protein stability index: 2.51

## KSAAMLAVFAVSAVVHEYALAVCL
parent: IOH22371_75, c terminus: a fixed tail appended
  protein stability index: 3.11

## YSSSKGSLRLCDMRAAALCDKHSK [PPP2R2C WT]
parent: IOH22415_38, c terminus: a fixed tail appended
  protein stability index: 1.74

## PSNGRIDIKQLIAKKIKLTAEAEE
parent: IOH22371_7, c terminus: a fixed tail appended
  protein stability index: 3.15

## HVGELIIWDALDWTMQAYERNFWD
parent: IOH25728_41, c terminus: a fixed tail appended
  protein stability index: 2.32

## YNPHPGFPELGYSYGGGSASSQHS
parent: IOH21682_92, c terminus: a fixed tail appended
  protein stability index: 2.58

## FCADNPSELPPPMERTGGIGDSRP
parent: IOH21682_16, c terminus: a fixed tail appended
  protein stability index: 4.54

## HHHHGRDFLLRAASFDVCESVDEA
parent: IOH23244_56, c terminus: a fixed tail appended
  protein stability index: 3.72

## FVAFALCMFCLYSFMPLVIKVTSA
parent: IOH25755_45, c terminus: a fixed tail appended
  protein stability index: 2.87

## QYLAERYKVNTPMLQSFINYCLLF
parent: IOH25755_11, c terminus: a fixed tail appended
  protein stability index: 2.35

## LARKGSLKNGSMGSPVNQQPKKNN [C9orf25 WT]
parent: IOH25834_6, c terminus: a fixed tail appended
  protein stability index: 4.65

## STTEGIQLAKELGATYLELHSLDD
parent: IOH25836_27, c terminus: a fixed tail appended
  protein stability index: 3.48

## NQEITKAFHVRRTNRVKECLAKGT
parent: IOH23244_80, c terminus: a fixed tail appended
  protein stability index: 3.11

## GGADIIVIKYNVNDKFSFHEVKDN
parent: IOH25836_16, c terminus: a fixed tail appended
  protein stability index: 2.19

## TSAEIELPDVEPAAFLALLRFLYS
parent: IOH21551_20, c terminus: a fixed tail appended
  protein stability index: 2

## FEDEVKRLGWQQQAELQELEERLQ [KIAA0774 WT]
parent: IOH21722_11, c terminus: a fixed tail appended
  protein stability index: 4.08

## FDHLQNRLIATKNPEEIRGGGLLK
parent: IOH22484_38, c terminus: a fixed tail appended
  protein stability index: 3.8

## EGCGPPLRRWLRANLAASGGYAIA [TSPAN10 WT]
parent: IOH21852_47, c terminus: a fixed tail appended
  protein stability index: 1.89

## DSCCPAGIFQAMCLLICAEMYQVS
parent: IOH25836_81, c terminus: a fixed tail appended
  protein stability index: 3.09

## VKYNSCADRPFSAPWWFWLSLTGV
parent: IOH22744_36, c terminus: a fixed tail appended
  protein stability index: 2.7

## FIGEESVAAGEKSILTDNPTWIID [IMPA1 WT]
parent: IOH21098_12, c terminus: a fixed tail appended
  protein stability index: 2.05

## FFIRTSDSFDKFDFCEPSFVTGNC [PCMTD2 WT]
parent: IOH21782_22, c terminus: a fixed tail appended
  protein stability index: 2.15

## EPAGSLRELGVWRSLLRLRATRAG
parent: IOH21460_10, c terminus: a fixed tail appended
  protein stability index: 2.6

## HPDPAPFCADNPSELPPPMERTGG
parent: IOH21682_15, c terminus: a fixed tail appended
  protein stability index: 2.73
